Experimental data published in the domain aggregation screens of Martell et al. (2025).

Assay: soluble fraction after stress (log2 fold change); higher = more stays soluble; pooled small domains, quantitative proteomics
Details: stress: 75 degC
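Note: 20 min heating vs room temperature control held 20 min.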

Sequence	soluble fraction (log2)
HMRRQRNPEIFDQLVNKFHFTFTQTQQLKQLIKRWHMLFPGKSLKSAIQGYKSAKEILTYINDSLDVVE	0.213
HMRRRTLRQGATGSDVHAVQRLLNVDGAGLRTDGIFGPATERAVIAYQRKHGLAVDGVVGRETWTALLG	-0.743
HMRRSDLVTQGDEILKRLQWNQQQAKDFLNQHLKASSRQQLTDEQLLNFNMLLEEQLVKSME	0.426
HMRRSLIGPTVRERRRALGITQSRLAAEVGISASYLNLIEGDKRNIGGALLQRIAGALGLALD	-3.08
HMRRTVIVTAAHAEIRERPDANAPLVFSAEQKVSLDYQETAPGGWVKVRHRDGQSGYVRTNQI	-0.716
HMRRVGTALNRSHKVSYGESIQSIAARYNVNPTMLREYNRLKPEATITPGQILRIPPATIAS	-0.481
HMRRVRRTRRLLQDGLLGLMQHKAVADISVKELAEAADVARATVYVHFKDPADVLHQLEQGLY	0.091
HMRSDHVFTSHLARRDKYISELESLSDSARDDHIQTIKEEDEYLLKYRRTRNLFGIPLNDEMKQFEPFNY	-0.228
HMRSEILNLLREKSPQPVSGQDLANHFGITRTAVWKHIQSLKKMGYGIEAYTKKGYVLVSVPN	-0.159
HMRSGEDESFSAGLLEYPHYTRPAEFEGHRIPDILTSGDHAKVDAWRQEMSEHITRERRPDLWEMYKKK	0.13
HMRSHLSANLQRLRHIAGLTQKDLALAANLPRATLASLEQGEANPRLDTLLAVASALQVGLDELIAAP	-1.32
HMRSIMAVSNYRHKKILEMVYQRKSVSADELAAEFGVSKITIRRDLDTLAMDKLLERTRGGAISISD	-3.14
HMRSRHYRFSTPFLDRLIAEIDWNSDNALSIFNQKLVHFDFLKYFSAIQPGSIVEIENLNFIWTGKRLEAH	-3.37
HMRSVLSDEIYLLIRKMIFNYEILPGAKVNIDALAKKLDVSQTPVREALSRLESDGLIVKEPLKGFRATD	-2.72
HMRSVPNVAGLGMDGAAFQLGKAGFAIGTITPADDPKAVVGSIQRTEPAAGTVADRDTVVNLFQV	0.228
HMRSVTLQTDREGDILYVDGKQIGVSPQRLELSYGVHTIRAERGEQHTEKELEVTETGGETVVTLGFG	0.375
HMRSYTPGSAFRLSSVPVYNAETGPSIGVRSGTYYIHSLPVSNGRIRMTNLISRVGKPGQVSFWVEISR	-3.11
HMRTAELEVWDDDELNDVVKLIQNNHNINTLKLRFQENVSFSGLSLIAAVLTKQSIILEIEY	0.235
HMRTDQYHYLAWKQVADELGIPFDEQVNERLRGVSRMASFDIILERYDGTMSDEEKIHWTDKKNEIYKSM	-0.603
HMRTGLSGMIGEIGIVKQAIDPEGKVAVHGELWKARADVALAAGQTVRVVAVDGLTMTVEATDSK	-0.661
HMRTIPDALIGRPYESVETAIVLEGLQAKRTEVFHPTIRPGTVIRLEPTSGSELLRDGVVEIFVSQGPETT	0.157
HMRTITIDDSIAGKRLDEALTLLGAESSRTKVKLLFSSPNGVLVNGEKEKPHYRVEAGDVIQFGELPKK	0.541
HMRTKEGLASQLEKIPGIGPVKRKALLKKFGSIDAIAAASKEELMLTDGITSSLADAIRDYF	-0.0754
HMRTLKDSTEYLIRSMLLRGEMKVGEIYSANALAKELNISNSPVREAMMSLVDRGLLENVRNRGFRVV	-1.83
HMRTLRENIMDYFKQQTIIQKSSVILLPMSKRQLADYFGVQRPSLFRELKKLKEEGIIEINNRTITIK	-1.8
HMRTSIWTAIAHSLRSDIGSGVYGPDDKLPTESALAARFGVNRHTVRHAIKALTDEGLVLPRRGAGVFVTS	-0.241
HMRTSPGADYEKTYYTIQSGDNLGAIAEKMGVSVADLKDWNDISGTKIYAGKKLVIYVKKGST	-0.351
HMRTTTGSEGMIGSIGKAKTDLAPDGKIFIHGELWDATSSSPVSAGQKIEVTQIEGLKLHVKPVL	0.7

Sequence	soluble fraction (log2)
HMRTVLSDETYLRIREMLLTHDIAPGERINIDALARELDVSQTPVREALARLESEDLVTKEPLRGYTATK	-0.0533
HMRTYEHALTEEEKELILIVSNLSEYKSLPPSQIVPKLADLGIYIASESSFYRVLRAHNQLHHRGR	-2.75
HMRTYYEILGVSKNASLHEIQKAYRELALKYHPKNNSDPTAEEKFTQINEAYTHLSDAARRRSYDDL	0.554
HMRVGADLTQRERELLALMAQGMSNQEIAKRLEIAVPTVKFHITNILDKLQVGNRTEAVIAALEHKLVP	-0.704
HMRVKLVKKSILASGGENIRVDKFLSNHILTMTRTQIKKLFLDGLVQVNKSFVKPGSILKGNEIITFSIPE	-1.68
HMRVNINVSENILDWVMKRVNPSVLSSKQGELLYAWKEGRKVPTYNQIEKMSKVTGIPLGYFFLEKPPVE	-1.45
HMRVPQWLVDKIAAAGIDTHRSGPALKALAAKAGTPEQLDQAIARAKALRRRTGSTQSLNVGLLGSILEGT	-0.345
HMRVQELARDLGVEADTLIALLRQMGIPVTGARSAINDAQQAKVLAKIERERRAGHSDPAKAIQAVLEEAS	0.00503
HMRVSNADALIGRRGKANSDIRRGDYGWVAIDGDVWKSKLADDITEDIPMGAIVEVLSRDSIILTVKP	-0.926
HMRWAAIMGREVAAHSTPESLVEGKLHIRTDTTAWATQLRLMSADIVRRLNEVLGEGTVLEVDVRG	-2.22
HMRWSDQKEIVTLSLDHVLVEKGRKTKEYSWREFRTFTAFEIKKSSKDQINLGFKSKGNTVIIGNF	-1.2
HMSAAELFEERQRQYLRGRKSTKNIADNHGTIILRAGETITDQAIDKAKVAGKLVELVMNNE	0.104
HMSADDSDDRKGIDAWLTQLLANGSVKATEVYSAADAAGYSKDQAKRAKRRLAIEAVREAMDGPWFWRLD	-0.853
HMSAEDQRRASQEAAYRFMQVMAGNEAGFEDAARALFAGDNHRFEVLIQSWPDDVRDHVSLLSVDAFA	-0.651
HMSAEVMLRRLIDENDPSSENARYILAVMLERKKILAPVDVKNEKKSKMLFYEHQKTGEAFIVRDP	-0.0597
HMSAEVSEIEIQRIISYYRNQNGVPDKYNEIFDRIAAQYTDEQLKVISNFLPSDVKQYLSFNNEKYKSLG	-0.904
HMSAGKKSFTNSEFRRFLDALGEGLIVKHKKLGEGVVVEIRGDKAVIQFGDEQRLYELKTLYEYDLLR	-0.628
HMSALAQDGDLVQLQGAGYKSHILRLKAGEVLQTHRGVIQHDAVIGQPWGARLQSHTGSPFYLFQPGLADL	-0.684
HMSALTELPVKTVNGKKYHYYVVKQHETVYALSKRFGITPEQLIKYNPSAEDGLQIDQELLFPATEI	-0.353
HMSANVSMEEALRRTSQAHSLAGKWMRRVLQMAQGRDLIEQMQREAQEAHLPELIGMSVQLEFIRRG	-0.107
HMSAPEGWMNRGDLRDNFRIQYPVTDRIIASYRESHPEWFGTYLSKTSKSLEYFHPDLVAKVREAAN	-0.0761
HMSAPQKWDGSLQDFIRFKQEAKTLMDNIPNKRLALNAILETISDGKMRKRLAKYDGPESALKSLELEFGN	-0.1
HMSAQDLIVRRDSARIEARVTEISPTEIRYKRASNPDGPTYVLPLGDVRSIRYANGEEEVFAPA	-0.223
HMSAQQTFLRDAMRRLNMTRDSFAERIGVRRRALDTWLLPEDSSEYRTMPSIVEKFVGEILGREA	-0.65
HMSARKVTVALHTRDHADRLRRLLKHEGVSADLVAARLSHKLTDHPIEVRVNEDDIPAVLRIIENIEIF	-1.61
HMSASLPAAVEDPDLPYRVGAKLRHARWGEGLLVGIQREGSDVIATVHFASVGRKRLSLQYAHLEE	-2.17
HMSATIMVLRASEDIPVGTEIKDNHLTTVEVGSYGLPEGAINDKDTVLGKVAQTNIIKGDYFFPQKLGG	0.339
